Laboratory results from the supplement of paper PMC7125110.
± gives the standard error. Fewer inactive variants are shown than the library holds.

B1: glmS ribozyme (parent)
chain: AUAAAAGCGCCAGAACUACAGAAAUGUAGUUGACGAGGAGGAGGUUUAUCGAAUUUUCGGCGGAUGCCUCCAAA

Assays:
Details in all cases: with glucosamine-6-phosphate
glucosamine-6-phosphate [1] = variants of: B1; test: self-cleavage kobs at 40 uM GlcN6P; higher = faster cleavage; RNA array
Outline: (§1)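 Glucosamine-6-phosphate (40 μM to 10 mM) in HEPES/KCl/Mg(OAc)2 buffer was flowed over sequenced MiSeq chips, and tiles were imaged over ~14 h. Barcoded ribozyme variants there had been transcribed in situ by E. coli RNA polymerase and were tracked through a hybridised Cy3 probe at 37 °C. One- or two-exponential decay fits to per-tile medians, normalised to baseline and to non-cleaving reference variants, gave kobs. kcat and KM came from weighted Michaelis–Menten fits across concentrations.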

glucosamine-6-phosphate [2] = variants of: B1; test: self-cleavage kobs at 640 uM GlcN6P; higher = faster cleavage; RNA array
Outline: as §1

glucosamine-6-phosphate [3] = variants of: B1; test: self-cleavage kobs at 10000 uM GlcN6P; higher = faster cleavage; RNA array
Outline: as §1

glucosamine-6-phosphate [4] = variants of: B1; test: self-cleavage kobs at 160 uM GlcN6P; higher = faster cleavage; RNA array
Outline: as §1

glucosamine-6-phosphate [5] = variants of: B1; test: self-cleavage kobs at 2500 uM GlcN6P; higher = faster cleavage; RNA array
Outline: as §1

| Variant | self-cleavage kobs at 40 uM GlcN6P (glucosamine-6-phosphate [1]) | self-cleavage kobs at 640 uM GlcN6P (glucosamine-6-phosphate [2]) | self-cleavage kobs at 10000 uM GlcN6P (glucosamine-6-phosphate [3]) | self-cleavage kobs at 160 uM GlcN6P (glucosamine-6-phosphate [4]) | self-cleavage kobs at 2500 uM GlcN6P (glucosamine-6-phosphate [5]) |
| --- | --- | --- | --- | --- | --- |
| C10A G51C | < 1e-05 s⁻¹ | < 1e-05 s⁻¹ | < 1e-05 s⁻¹ | – | – |
| C10U G59C | < 1e-05 s⁻¹ | < 1e-05 s⁻¹ | < 1e-05 s⁻¹ | < 1e-05 s⁻¹ | – |
| C10U G40U U49A | < 1e-05 s⁻¹ | < 1e-05 s⁻¹ | – | – | – |
| C10G A33C | < 1e-05 s⁻¹ | – | < 1e-05 s⁻¹ | < 1e-05 s⁻¹ | < 1e-05 s⁻¹ |
| C11A A12C G32U C50G | 0.000123 ± 3.9e-05 s⁻¹ | – | 0.000269 ± 6.1e-05 s⁻¹ | – | – |
| C11A U45C | < 1e-05 s⁻¹ | < 1e-05 s⁻¹ | – | – | – |
| C11G G32U | < 1e-05 s⁻¹ | – | < 1e-05 s⁻¹ | < 1e-05 s⁻¹ | – |
| C11U U30A A48G G59C A64G | < 1e-05 s⁻¹ | – | < 1e-05 s⁻¹ | – | < 1e-05 s⁻¹ |
| C10A G59C | < 1e-05 s⁻¹ | < 1e-05 s⁻¹ | < 1e-05 s⁻¹ | < 1e-05 s⁻¹ | < 1e-05 s⁻¹ |
| C10A A36U | < 1e-05 s⁻¹ | < 1e-05 s⁻¹ | < 1e-05 s⁻¹ | < 1e-05 s⁻¹ | < 1e-05 s⁻¹ |
| C10A U47A | < 1e-05 s⁻¹ | < 1e-05 s⁻¹ | – | < 1e-05 s⁻¹ | – |
| C11A G40A | < 1e-05 s⁻¹ | – | 3.6e-05 ± 1.4e-05 s⁻¹ | < 1e-05 s⁻¹ | – |
| C10G C34U G38C A64C C67U | < 1e-05 s⁻¹ | – | < 1e-05 s⁻¹ | – | – |
| G9U C11G | < 1e-05 s⁻¹ | – | < 1e-05 s⁻¹ | – | < 1e-05 s⁻¹ |
| C10G C70U | < 1e-05 s⁻¹ | – | – | – | – |
| C11A G41U | < 1e-05 s⁻¹ | < 1e-05 s⁻¹ | – | < 1e-05 s⁻¹ | < 1e-05 s⁻¹ |
| C10G C11U | < 1e-05 s⁻¹ | < 1e-05 s⁻¹ | – | – | – |
| C10U U57A | < 1e-05 s⁻¹ | – | < 1e-05 s⁻¹ | – | – |
| C10U U57G | < 1e-05 s⁻¹ | – | – | – | – |
| G9U C58A | < 1e-05 s⁻¹ | – | < 1e-05 s⁻¹ | – | – |
| G9U G32U G41U A53C | < 1e-05 s⁻¹ | – | < 1e-05 s⁻¹ | – | – |
| C10A C11U U69G | 4.43e-05 ± 2.1e-05 s⁻¹ | – | 5.88e-05 ± 1.5e-05 s⁻¹ | – | – |
| C10U G32A G51C C67U C71U | < 1e-05 s⁻¹ | – | – | – | < 1e-05 s⁻¹ |
| C10U A33G C70U | < 1e-05 s⁻¹ | – | < 1e-05 s⁻¹ | – | – |
| C10U G29A U47G | < 1e-05 s⁻¹ | – | – | – | – |
| C10U U46A U49A U65C C68G | < 1e-05 s⁻¹ | – | < 1e-05 s⁻¹ | – | – |
| C10U A64G C68A | < 1e-05 s⁻¹ | – | – | – | – |

| Variant | self-cleavage kobs at 40 uM GlcN6P (glucosamine-6-phosphate [1]) | self-cleavage kobs at 640 uM GlcN6P (glucosamine-6-phosphate [2]) | self-cleavage kobs at 10000 uM GlcN6P (glucosamine-6-phosphate [3]) | self-cleavage kobs at 160 uM GlcN6P (glucosamine-6-phosphate [4]) | self-cleavage kobs at 2500 uM GlcN6P (glucosamine-6-phosphate [5]) |
| --- | --- | --- | --- | --- | --- |
| C11U C16A G44C | < 1e-05 s⁻¹ | < 1e-05 s⁻¹ | – | – | – |
| G9U G41C A42U G44A | < 1e-05 s⁻¹ | < 1e-05 s⁻¹ | – | < 1e-05 s⁻¹ | < 1e-05 s⁻¹ |
| C10U G44U U45A G59C C67G | < 1e-05 s⁻¹ | – | < 1e-05 s⁻¹ | – | – |
| C10A C16G U31G G38A C61U | < 1e-05 s⁻¹ | – | < 1e-05 s⁻¹ | – | – |
| C10A A64U | < 1e-05 s⁻¹ | < 1e-05 s⁻¹ | < 1e-05 s⁻¹ | – | < 1e-05 s⁻¹ |
| C10G C11G G63C | < 1e-05 s⁻¹ | – | < 1e-05 s⁻¹ | – | – |
| C10A G37C G38A A64U U65C | < 1e-05 s⁻¹ | – | – | – | < 1e-05 s⁻¹ |
| C10U C16G G29U | < 1e-05 s⁻¹ | – | – | – | – |
| C10U G35U A39U A48G | < 1e-05 s⁻¹ | < 1e-05 s⁻¹ | < 1e-05 s⁻¹ | < 1e-05 s⁻¹ | < 1e-05 s⁻¹ |
| C10A C61U | < 1e-05 s⁻¹ | – | – | – | < 1e-05 s⁻¹ |
| C10G C61U | < 1e-05 s⁻¹ | < 1e-05 s⁻¹ | < 1e-05 s⁻¹ | < 1e-05 s⁻¹ | – |
| C11A A39G U45A A52U | < 1e-05 s⁻¹ | – | – | – | – |
| G9U A42U | < 1e-05 s⁻¹ | < 1e-05 s⁻¹ | – | < 1e-05 s⁻¹ | < 1e-05 s⁻¹ |
| C11G A48U G63C | < 1e-05 s⁻¹ | – | < 1e-05 s⁻¹ | – | – |
| C10U G13A C67A | < 1e-05 s⁻¹ | < 1e-05 s⁻¹ | < 1e-05 s⁻¹ | – | – |
| G9U G13A A36U G38A U65G | < 1e-05 s⁻¹ | – | < 1e-05 s⁻¹ | – | – |
| C10G G32U C58A C70G | 5.06e-05 ± 1.8e-05 s⁻¹ | – | – | – | – |
| C10A U47G G63C C68G | 9.61e-05 ± 3.8e-05 s⁻¹ | – | – | – | – |
| C10A C50G G63C | 0.000128 ± 3.3e-05 s⁻¹ | – | 4.91e-05 ± 1.8e-05 s⁻¹ | – | 7.48e-05 ± 2.8e-05 s⁻¹ |
| C11G U45A | < 1e-05 s⁻¹ | – | – | – | – |
| C11U A36G C50G | 8.31e-05 ± 2.8e-05 s⁻¹ | 0.000352 ± 0.00014 s⁻¹ | 4.94e-05 ± 1.5e-05 s⁻¹ | – | – |
| C11G A14G G63U C70A | 9.38e-05 ± 2.9e-05 s⁻¹ | – | – | – | 0.000123 ± 5.4e-05 s⁻¹ |
| C11G U55C | < 1e-05 s⁻¹ | < 1e-05 s⁻¹ | – | < 1e-05 s⁻¹ | – |
| G9U C16U A52G C67G | 0.000158 ± 3.7e-05 s⁻¹ | – | 0.000546 ± 0.00017 s⁻¹ | – | – |
| G9U G60U C71G | < 1e-05 s⁻¹ | – | – | – | – |
| C11U A33C A53U U57G G60U | < 1e-05 s⁻¹ | – | < 1e-05 s⁻¹ | – | – |
